Data set [1] concerns the target mm PCDH24 EC1-2Fc (mouse). Nature of the data set: SPR; OpenSPR (Nicoya); mm PCDH24 EC1-2Fc immobilised on a Protein A sensor chip (>800 RU); mm CDHR5 EC1-2 injected at 2 to 23.5 uM; 20 mM Tris HCl pH 7.5, 150 mM NaCl, 50 mM KCl, 2 mM CaCl2, 0.5 mM TCEP, 1% BSA; 20 uL/min; kinetic fit, 1:1 model.
Data set [2] deals with the molecule itself. Nature of the data set: bead aggregation assay; homophilic; Protein G Dynabeads coated with one Fc fusion captured from concentrated serum-free medium and washed; 50 mM Tris pH 7.5, 100 mM NaCl, 10 mM KCl, 0.2% BSA, 2 mM CaCl2; 60 min on a depression slide, then rocking 1 to 2 min.
Data set [3] deals with the molecule itself. The data set can be described thus: crystal structure; contacts between copies of one fragment in the crystal (asymmetric unit or symmetry mates); vapor diffusion at 4 °C.

For orientation: Kd means the constant that tells how readily two partners part at equilibrium. As to mm CDHR5 EC1-2 (domain or fragment), the Kd in data set [1] was 16 µM.

B1: hs PCDH24 EC1-MAD10Fc (Fc fusion, human)
chain: NVAPKFLANMTSVILPEDLPVGAQAFWLVAEDQDNDPLTYGMSGPNAYFFAVTPKTGEVKLASALDYETLYTFKVTISVSDPYIQVQREMLVIVEDRNDNAPVFQNTAFSTSINETLPVGSVVFSVLAVDKDMGSAGMVVYSIEKVIPSTGDSEHLFRILANGSIVLNGSLSYNNKSAFYQLELKACDLGGMYHNTFTIQCSLPVFLSISVVDQPDLDPQFVREFYSASVAEDAAKGTSVLTVEAVDGDKGINDPVIYSISYSTRPGWFDIGADGVIRVNGSLDREQLLEADEEVQLQVTATETHLNIYGQEAKVSIWVTVRVMDVNDHKPEFYNCSLPACTFTPEEAQVNFTGYVDEHASPRIPIDDLTMVVYDPDKGSNGTFLLSLGGPDAEAFSVSPERAVGSASVQVLVRVSALVDYERQTAMAVQVVATDSVSQNFSVAMVTIHLRDINDHRPTFPQSLYVLTVPEHSATGSVVTDSIHATDPDTGAWGQITYSLLPGNGADLFQVDPVSGTVTVRNGELLDRESQAVYYLTLQATDGGNLSSSTTLQIHLLDINDNAPVVSGSYNIFVQEEEGNVSVTIQAHDNDEPGTNNSRLLFNLLPGPYSHNFSLDPDTGLLRNLGPLDREAIDPALEGRIVLTVLVSDCGEPVLGTKVNVTITVEDINDNLPIFNQSSYNFTVKEEDPGVLVGVVKAWDADQTEANNRISFSLSGSGANYFMIRGLVLGAGWAEGYLRLPPDVSLDYETQPVFNLTVSAENPDPQGGETIVDVCVNVKDVNDNPPTLDVASLRGIRVAENGSQHGQVAVVVASDVDTSAQLEIQLVNILCTKAGVDVGSLCWGWFSVAANGSVYINQSKAIDYEACDLVTLVVRACDLATDPGFQAYSNNGSLLITIEDVNDNAPYFLPENKTFVIIPELVLPNREVASVRARDDDSGNNGVILFSILRVDFISKDGATIPFQGVFSIFTSSEADVFAGSIQPVTSLDSTLQGTYQVTVQARDRPSLGPFLEATTTLNLFTVDQSYRSRLQFSTPKEEVGANRQAINAALTQATRTTVYIVDIQDIDSAARARPHSYLDAYFVFPNGSALTLDELSVMIRNDQDSLTQLLQLGLVVLGSQESQESDLSKQLISTVPRARDPPV
notes: protocadherin-24 (PCDH24, also CDHR2), human, full-length extracellular domain EC1 to MAD10; DNA cloned with the signal peptide, protein secreted; numbers count on: the mature protein; linker between the PCDH24 fragment and the Fc tag in the CMV vector; also called Fc-tagged full-length hs PCDH24 extracellular domain; human protocadherin-24; not shown: Fc, C-terminal, kept
Take B1: in data set [2], the binding result is “binds”.

B2: hs PCDH24 EC1-2 (mammalian-produced, form II crystal) (domain or fragment, human)
chain: NVAPKFLANMTSVILPEDLPVGAQAFWLVAEDQDNDPLTYGMSGPNAYFFAVTPKTGEVKLASALDYETLYTFKVTISVSDPYIQVQREMLVIVEDRNDNAPVFQNTAFSTSINETLPVGSVVFSVLAVDKDMGSAGMVVYSIEKVIPSTGDSEHLFRILANGSIVLNGSLSYNNKSAFYQLELKACDLGGMYHNTFTIQCSLPVFLSISVVDQPDLDTVPRARDPPVGG
modifications: N-linked glycosylation at N9
notes: protocadherin-24 (PCDH24, also CDHR2), human, repeats EC1-2; DNA cloned with the signal peptide in a CMV vector, protein secreted; the structure includes residues N1 to D218; numbers count on: the mature protein; The range is that of the residues in the structure; The crystallised sample also held mammalian-produced hs CDHR5 EC1-2, which is not in the structure; also called Hs PCDH24 EC1-2 II; …
In the case of B2, in data set [3], the binding result is “binds”.
